The values that follow come from US7078478B2, “Inhibition of the proliferation of cells of the multiple myeloma” (GSF-Forschungszentrum für Umwelt Gesundheit, GmbH, priority 1999, dated 2006).

Test [1] has as its target deletion mutant Δ771-827 of Eg (mouse; human) (UniProt P14753). The experiment in a line: co-immunoprecipitation with anti-Hck, anti-His blot, Cos-7 lysates (FIG. 5B).
Test [2] shares this target. The experiment in a line: co-immunoprecipitation with anti-Hck, anti-His blot, Cos-7 lysates (FIG. 5A).
The target is the same in test [3]. As to the kind of experiment: co-immunoprecipitation with anti-Hck, anti-His blot, Cos-7 lysates (FIG. 6).
The target of test [4] is DDM mutant (double point and deletion mutant) of Eg (mouse; human) (UniProt P14753). The test is described as above.
Test [5] deals with IL-6 dependent murine cell line 7TD-1. The experiment in a line: IL-6 induced cell proliferation of 7TD-1 cells incubated with peptides, microscopic cell counting. Format: cell-based. The note with it: 7TD-1 stimulated with 40 pg IL-6, 100 μM peptide, 4 days, compared with untreated or unstimulated cells. As for the experimental part:
Subfragments of the previously described 41 amino acid Hck binding domain of gp130 were used to narrow down the essential parts of this domain. The subfragments, which are shown in FIG. 12, were synthesized by solid phase synthesis, N-terminally coupled to myristate in order to render them membrane soluble, and diluted in DMSO. A MM-cell line was incubated with the different peptides and cell proliferation was measured.
To determine the effects of the different peptides on IL-6 induced cell proliferation, the IL-6 dependent murine cell line 7TD-1 was stimulated with 40 pg of IL-6 and incubated with 100 μM of the different peptides. After 4 days, the cell proliferation was determined by microscopic cell counting.

In test [1], “Hck tyrosine kinase (wild type Hck, expressed from pcDNA3-Hck or pDpuro-Hck) (from UniProt P08631 2-526) (enzyme)” gave a loss of gp130 co-precipitation with Hck of 90%. Further, in test [2], the decrease of Hck co-precipitation with gp130 was greater than 90%. The reduction of Hck binding to gp130 in test [3] and in test [4] was greater than 90% each time.
For LLDSEERPEDLQLVD [compound 6], the cell proliferation result in test [5] is reported as “down regulation of cell proliferation to the basal level”.
The same measure, in the same setting: with TQPLLDSEERPEDLQLVD [compound 2] the entry was “down regulation of cell proliferation to the basal level”.
